Reference: the supplement of paper PMC10567573

B1: KRT34 (parent)
chain: PTVDLNQVLNETRSQYEALVETNR
B2: ZNF8 (parent)
chain: VHVIGVEEPSVGASMLFDIREST

Variants of: B1
Assay: protein stability index of a GFP-peptide fusion (GPS, HEK-293T) (PSI 1-6); higher = more stable
Settings: c terminus: a fixed tail appended
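Further: lentivirally expressed fusions sorted by FACS into six bins by GFP to DsRed ratio, PSI derived from sequencing read proportions per bin multiplied by bin number.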

Point of comparison: PTVDLNQELNETRSQYEALVETNR [V8E], protein stability index 4.4. Against it:
- PTVDLNQVLNETRSQYEALVGTNR [E21G] — lower, 4.06
- PTVDLNQVLNETRSQYEALVVTNR [E21V] — lower, 3.49
- PTVDLNQVLNETRSQYEALVATNR [E21A] — lower, 3.84
- PTVDLNQVLNETGSQYEALVETNR [R13G] — higher, 4.52
- PTVDLNQVLNETFSQYEALVETNR [R13F] — lower, 3.07
- PTVDLNQVLNETKSQYEALVETNR [R13K] — lower, 3.31
- PTVDLNQVLNETYSQYEALVETNR [R13Y] — lower, 3.64
- PTVDLNQVLNETDSQYEALVETNR [R13D] — higher, 5.18
- PTVDLNQVLNETPSQYEALVETNR [R13P] — higher, 4.79
- PTVDLNQVLNETNSQYEALVETNR [R13N] — higher, 5.01
- PTVTLNQVLNETRSQYEALVETNR [D4T] — lower, 3.5
- PTVSLNQVLNETRSQYEALVETNR [D4S] — lower, 2.73
- PTVILNQVLNETRSQYEALVETNR [D4I] — lower, 3.58
- PTVRLNQVLNETRSQYEALVETNR [D4R] — higher, 4.48
- PTVNLNQVLNETRSQYEALVETNR [D4N] — lower, 4.38
- PTVGLNQVLNETRSQYEALVETNR [D4G] — lower, 3.62
- PTVCLNQVLNETRSQYEALVETNR [D4C] — lower, 2.97
- PTVDENQVLNETRSQYEALVETNR [L5E] — higher, 4.61
- PTVDQNQVLNETRSQYEALVETNR [L5Q] — lower, 4.38
- PTVDFNQVLNETRSQYEALVETNR [L5F] — lower, 3.92
- PTVDHNQVLNETRSQYEALVETNR [L5H] — lower, 3.8
- PTVDINQVLNETRSQYEALVETNR [L5I] — lower, 2.24
- PTVDWNQVLNETRSQYEALVETNR [L5W] — lower, 3.3
- PTVDMNQVLNETRSQYEALVETNR [L5M] — lower, 4.24
- PTVDVNQVLNETRSQYEALVETNR [L5V] — lower, 2.86
- PTVDLNQVLVETRSQYEALVETNR [N10V] — lower, 3.21
- PTVDLNQVLPETRSQYEALVETNR [N10P] — higher, 4.55
- PTVDLNQVLWETRSQYEALVETNR [N10W] — lower, 3.02
- PTVDLNQVLGETRSQYEALVETNR [N10G] — lower, 4.35
- PTVDLNQVLIETRSQYEALVETNR [N10I] — lower, 2.47
- PTVDLNQVLNETRSQYEALVESNR [T22S] — lower, 4.36
- PTVDLNQVLNETRSQYEALVERNR [T22R] — higher, 4.46
- PTVDLNQVLNETRSQYEALVENNR [T22N] — lower, 4.39
- PTVDLNQVLNETRSQYEALVEINR [T22I] — lower, 1.68
- PTVDLNQVLNETRSQYEALVEKNR [T22K] — lower, 3.66
- PTVDLNQVLNETRSQYEALVELNR [T22L] — lower, 2.54
- PTVDLNQDLNETRSQYEALVETNR [V8D] — higher, 4.64
- PTVDLNQRLNETRSQYEALVETNR [V8R] — higher, 4.67
- PTVDLNQCLNETRSQYEALVETNR [V8C] — lower, 3.48
- PTVDLNQTLNETRSQYEALVETNR [V8T] — lower, 3.76
- PTVDLNQWLNETRSQYEALVETNR [V8W] — lower, 2.56
- PTVDLNQILNETRSQYEALVETNR [V8I] — lower, 3.57
- PTVDLNQNLNETRSQYEALVETNR [V8N] — higher, 4.58
- PTVDLNQVLNETRSQYEALVETCR [N23C] — lower, 3.47
- PTVDLNQVLNETRSQYEALVETDR [N23D] — higher, 5.04
- PTVDLNQVLNETRSQYEALVETIR [N23I] — lower, 2.79
- PTVDLNQVLNETRSQYEALVETPR [N23P] — lower, 4.04
- PTVDLNQVLNETRSQYEALVETGR [N23G] — lower, 4.04
- PRVDLNQVLNETRSQYEALVETNR [T2R] — lower, 3.66
- PKVDLNQVLNETRSQYEALVETNR [T2K] — lower, 3.14
- PMVDLNQVLNETRSQYEALVETNR [T2M] — lower, 1.85
- PHVDLNQVLNETRSQYEALVETNR [T2H] — lower, 3.38
- PCVDLNQVLNETRSQYEALVETNR [T2C] — lower, 2.67
- PLVDLNQVLNETRSQYEALVETNR [T2L] — lower, 1.85
- PTNDLNQVLNETRSQYEALVETNR [V3N] — higher, 4.46
- PTTDLNQVLNETRSQYEALVETNR [V3T] — lower, 3.89
- PTEDLNQVLNETRSQYEALVETNR [V3E] — lower, 4.03

Variants of: B2
Assay: as above
Settings: c terminus: native

Point of comparison: VHVIGVEEPSVGASMLFDIREQT [S22Q], protein stability index 2.2. Against it:
- VHVIGVEEPSVGASMLFDIRESM [T23M] — lower, 2.14
- VHVIGVEEPSVGASMLFDIRESS [T23S] — higher, 2.48
- VHVIGVEEPSVGASMLFDIRESE [T23E] — higher, 2.37
- VHVIGVEEPSVGASMLFDIRESG [T23G] — lower, 2.12
- VHVIGVEEPSVGASMLFDIRESP [T23P] — lower, 2.04
- VHVIGVEEPSVGASMLFDIRESR [T23R] — higher, 2.63
- VHVIGVEEPSVGASMLFDIRESK [T23K] — higher, 2.22
- VHVIGVEEPSVGASMLFDIRESL [T23L] — lower, 1.79
- VHVIGVEEPSVGASMLFDIRESI [T23I] — lower, 1.69
- VHVIGVEEPSVGASMLFDIRESD [T23D] — higher, 2.37
- VHVIGVEEPSVGASMLFDIRESA [T23A] — lower, 2.01
- VHVIGVEEPSVGASMLFDIRESN [T23N] — lower, 2.14
- VHVIGVEEPSVGASMLFDIRESV [T23V] — lower, 2.06
- VHVIGVEEPSVGASMLFDIRESQ [T23Q] — lower, 2.09
- VHVIGVEEPSVGASMLFDIRESH [T23H] — higher, 2.45
- VHVIGVEEPSVGASMLFDIRESC [T23C] — lower, 1.76
- VHVIGVEEPSVGASMLFDIRESY [T23Y] — lower, 1.76
- VHVIGVEEPSVGASMLFDIRESF [T23F] — lower, 1.61
- VHVIGVEEPSVGASMLFDIREET [S22E] — higher, 2.58
- VHVIGVEEPSVGASMLFDIRERT [S22R] — lower, 1.92
- VHVIGVEEPSVGASMLFDIRECT [S22C] — higher, 2.52
- VHVIGVEEPSVGASMLFDIREHT [S22H] — higher, 2.55
- VHVIGVEEPSVGASMLFDIREPT [S22P] — higher, 2.42
- VHVIGVEEPSVGASMLFDIREMT [S22M] — higher, 2.55
- VHVIGVEEPSVGASMLFDIREGT [S22G] — lower, 1.79
- VHVIGVEEPSVGASMLFDIREFT [S22F] — higher, 2.23
- VHVIGVEEPSVGASMLFDIREIT [S22I] — lower, 1.69
- VHVIGVEEPSVGASMLFDIREYT [S22Y] — lower, 1.59
- VHVIGVEEPSVGASMLFDIREVT [S22V] — lower, 1.55
- VHVIGVEEPSVGASMLFDIRENT [S22N] — higher, 3.08
- VHVIGVEEPSVGASMLFDIRELT [S22L] — lower, 1.68
- VHVIGVEEPSVGASMLFDIREDT [S22D] — higher, 2.62
- VHVIGVEEPSVGASMLFDIREKT [S22K] — higher, 2.3
- VHVIGVEEPSVGASMLFDIREAT [S22A] — higher, 2.38
- VHVIGVEEPSVGASMLFDIRETT [S22T] — higher, 2.35
- VHVIGVEEPSVGASMLFDIREWT [S22W] — lower, 1.36
